Tests used:
[1] = molecular target: FUS U-CTD (RGG2-ZnF-RGG3, ZnF unfolded) (UniProt P35637 371-526); test: NMR HSQC titration (CSD); no Zn; 1:10; Arg/Lys residues; 20 uM protein, 5 mM sodium phosphate pH 6.0, 1 mM MgCl2 (ZnCl2 added for full-length FUS and F-CTD), 25 C; conditions: protein: recombinant, tags: none
FUS NTD (PLD+RGG1) [2] = molecular target: T1, FUS NTD (PLD+RGG1) (UniProt P35637 1-267); test: NMR HSQC titration; 1 mM MgCl2; same residues as TssDNA; 20 uM protein, 5 mM sodium phosphate pH 6.0, 1 mM MgCl2 (ZnCl2 added for full-length FUS and F-CTD), 25 C; conditions: protein: recombinant; tags: none; unstructured (CD)
T1 sequence (P35637 1-267): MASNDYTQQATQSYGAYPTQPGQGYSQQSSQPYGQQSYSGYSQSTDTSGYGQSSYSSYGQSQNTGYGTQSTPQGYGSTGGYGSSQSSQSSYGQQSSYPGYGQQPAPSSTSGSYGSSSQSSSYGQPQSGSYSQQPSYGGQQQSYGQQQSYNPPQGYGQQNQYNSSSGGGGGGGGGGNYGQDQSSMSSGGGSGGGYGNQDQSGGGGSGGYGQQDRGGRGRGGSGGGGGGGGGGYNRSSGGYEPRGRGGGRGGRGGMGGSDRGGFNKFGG

[3] = molecular target: T2, FUS F-CTD (RGG2-ZnF-RGG3, ZnF folded) (UniProt P35637 371-526); test: NMR HSQC titration (line broadening); Zn2+; same pattern as TssDNA; 20 uM protein, 5 mM sodium phosphate pH 6.0, 1 mM MgCl2 (ZnCl2 added for full-length FUS and F-CTD), 25 C; conditions: protein: recombinant; tags: none; unstructured (CD)
T2 sequence (P35637 371-526): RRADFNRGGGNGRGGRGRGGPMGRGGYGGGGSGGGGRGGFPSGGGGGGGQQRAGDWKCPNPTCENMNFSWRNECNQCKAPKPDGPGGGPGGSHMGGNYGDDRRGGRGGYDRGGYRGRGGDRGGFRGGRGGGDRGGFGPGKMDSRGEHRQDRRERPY

FUS full-length [4] = molecular target: T3, FUS full-length (UniProt P35637 1-526); test: NMR HSQC titration (line broadening); Zn2+; highly similar to TssDNA; 20 uM protein, 5 mM sodium phosphate pH 6.0, 1 mM MgCl2 (ZnCl2 added for full-length FUS and F-CTD), 25 C; conditions: protein: recombinant; tags: none (His-tag removed by stop codon); unstructured (CD)
T3 sequence (P35637 whole entry): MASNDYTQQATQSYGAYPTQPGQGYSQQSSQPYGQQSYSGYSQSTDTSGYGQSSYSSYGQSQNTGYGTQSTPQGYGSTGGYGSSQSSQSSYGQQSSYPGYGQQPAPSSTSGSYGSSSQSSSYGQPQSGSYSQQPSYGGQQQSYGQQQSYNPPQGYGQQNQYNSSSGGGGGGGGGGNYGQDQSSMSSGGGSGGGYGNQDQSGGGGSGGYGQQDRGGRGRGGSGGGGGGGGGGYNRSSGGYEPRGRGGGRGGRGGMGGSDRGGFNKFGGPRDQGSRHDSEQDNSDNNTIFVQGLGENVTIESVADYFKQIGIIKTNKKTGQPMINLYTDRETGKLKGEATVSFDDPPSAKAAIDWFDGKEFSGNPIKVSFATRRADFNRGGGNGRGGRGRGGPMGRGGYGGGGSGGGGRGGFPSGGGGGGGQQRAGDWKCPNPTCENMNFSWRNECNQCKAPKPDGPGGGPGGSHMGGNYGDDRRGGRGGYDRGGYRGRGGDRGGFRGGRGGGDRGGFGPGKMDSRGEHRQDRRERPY

FUS full-length [5] = molecular target: T3, FUS full-length; test: NMR HSQC competition (displaces ATP); 3 mM ATP; 0.3 mM TssDNA; 20 uM protein, 5 mM sodium phosphate pH 6.0, 1 mM MgCl2 (ZnCl2 added for full-length FUS and F-CTD), 25 C; conditions: protein: recombinant; tags: none (His-tag removed by stop codon); G4 (by CD in the phosphate buffer)
FUS NTD (PLD+RGG1) [6] = molecular target: T1, FUS NTD (PLD+RGG1); test: NMR HSQC titration; 1 mM MgCl2; saturated at 1:2; RGG1 residues; 20 uM protein, 5 mM sodium phosphate pH 6.0, 1 mM MgCl2 (ZnCl2 added for full-length FUS and F-CTD), 25 C; conditions: protein: recombinant; tags: none; G4 (by CD in the phosphate buffer)
[7] = molecular target: T2, FUS F-CTD (RGG2-ZnF-RGG3, ZnF folded); test: NMR HSQC titration (line broadening); Zn2+; all peaks lost at 1:1; 20 uM protein, 5 mM sodium phosphate pH 6.0, 1 mM MgCl2 (ZnCl2 added for full-length FUS and F-CTD), 25 C; conditions: protein: recombinant; tags: none; G4 (by CD in the phosphate buffer)

Measured: binding result

FUS U-CTD (RGG2-ZnF-RGG3, ZnF unfolded), sequence (P35637 371-526): as the sequence (P35637 371-526) above

B1: T24 (ssDNA)
DNA: TTTTTTTTTTTTTTTTTTTTTTTT
binds: [1]; unstructured (CD) | FUS NTD (PLD+RGG1) [2] | [3] | FUS full-length [4]

B2: TssDNA (telomeric ssDNA, 24-mer) (structured_DNA)
DNA: TTAGGGTTAGGGTTAGGGTTAGGG
binds: [1]; G4 (by CD in the phosphate buffer) | FUS full-length [5] | FUS NTD (PLD+RGG1) [6] | [7]

— article PMC6590835, “A unified mechanism for LLPS of ALS/FTLD-causing FUS as well as its modulation by ATP and oligonucleic acids”
